Measurements as given in patent US11473073B2, “Aminopeptidases for protein hydrolyzates” (DUPONT NUTRITION BIOSCIENCES APS, priority 2015, dated 2022).

Experiments:
[1] = system: peptide WHWLQLKPGQPMY (SEQ ID NO:26); assay: Hydrolysis of proline containing peptide, LC-MS; type: biochemical; details: peptide 1 mg/mL, aminopeptidase 1 ug/mL, CPB-Buffer, 55° C.; FIG. 5-7
Description: The peptide […] (SEQ ID NO:26) was hydrolysed with TRI03 and TRI035. The peptide (1 mg/mL) was incubated with 1 ug/mL of the aminopeptidase in 20 mM CPB-Buffer (20 mM Citric acid, 20 mM Phosphate. 20 mM Boric acid) at 55° C. Aliquots (50 μL) were stopped with 50 rel 5% TFA at the indicated time points and subjected to LC-MS analysis.
Capillary LC-MS/MS analyses were performed using an Agilent 1100 LC system (Agilent Technologies) interfaced to a LTQ Orbitrap Classic hybrid mass spectrometer (Thermo Scientific, Bremen, Germany). Samples were loaded onto a 15 cm Phenomenix Jupiter 4μ Proteo 90A, C4 analytical column. Separation was performed at a flow rate of 16 μL/min using a 10 min gradient of 0-40% Solvent B H2O/CH3CN/HCOOH (50/950/0.65 v/v/v) into the IONMAX® ion source (Thermo Scientific, San Jose). The LTQ Orbitrap Classic instrument was operated in a data-dependent MS/MS mode. The peptide masses were measured by the Orbitrap (MS scans were obtained with a resolution of 60 000 at m/z 400), and up to 2 of the most intense peptide m/z were selected and subjected to fragmentation using CID in the linear ion trap (LTQ). Dynamic exclusion was enabled with a list size of 500 masses, duration of 40 s, and an exclusion mass width of ±10 ppm relative to masses on the list.
The RAW files were accessed with the program Skyline 2.6.0.7176 (MacLean, B., et al., “Skyline: an open source document editor for creating and analyzing targeted proteomics experiments”, Bioinformatics, 2010, 26(7): p. 966-8) which uses the MS1 intensities to build chromatograms (Schilling, B., et al., “Platform-independent and label-free quantitation of proteomic data using MS1 extracted ion chromatograms in skyline: application to protein acetylation and phosphorylation”, Mol Cell Proteomics, 2012. 11(5): p. 202-14). The precursor isotopic import filter was set to a count of three, (M, M+1, and M+2) at a resolution of 60,000 and the most intense charge state was used. Peptide sequences of the substrate as well as cleavage products were typed into Skyline and intensities were calculated in each sample. […]

[2] = system: peptide WHWLQLKPGQPMY (SEQ ID NO:26); details: as described by Blinkovsky et al., Biochimica et Biophysica Acta 1480 (2000) 171-181; cited from earlier work

B1: Aspergillus oryzae PepN 2: Aspergillus oryzae PepN 2 described by A. M. Blinkovsky et al., Biochimica et Biophysica Acta 1480 (2000) 171-181 (protein)
chain: RALVSPDEFPEDIQLEDLLEGSQQLEDFAYAYPERNRVFGGKAHDDTVNYLYEELKKTGYYDVYKQPQVHLWSNADQTLKVGDEEIEAKTMTYSPSVEVTADVAVVKNLGCSEADYPSDVEGKVALIKRGECPFGDKSVLAAKAKAAASIVYNNVAGSMAGTLGAAQSDKGPYSAIVGISLEDGQKLIKLAEAGSVSVDLWVDSKQENRTTYNVVAQTKGGDPNNVVALGGHTDSVEAGPGINDDGSGIISNLVIAKALTQYSVKNAVRFLFWTAEEFGLLGSNYYVSHLNATELNKIRLYLNFDMIASPNYALMIYDGDGSAFNQSGPAGSAQIEKLFEDYYDSIDLPHIPTQFDGRSDYEAFILNGIPSGGLFTGAEGIMSEENASRWGGQAGVAYDANYHAAGDNMTNLNHEAFLINSKATAFAVATYANDLSSIPKRNTTSSLHRRARTMRPFGKRAPKTHAHVSGSGCWHSQVEA
[1]
  hydrolysis of WHWLQLKPGQPMY to KPGQPMY and further down to QPMY: cleaves the peptide down to QPMY
[2]
  hydrolysis of X-Pro bonds including those of WHWLQLKPGQPMY: does not hydrolyze
